Results published in the supplement of paper PMC7877785.
± gives the uncertainty stated by the source.

Experiment: self-splicing fitness, log relative to wild type (ln ratio); higher = more splicing; Tetrahymena group I intron in knt gene, E. coli kanamycin selection, DiMSum; sequences stand for … in CUCUCU…GGAGGGAAAAGUUAUCAGGCAUGCACCUGGUAGCUAGUCUUUAAACCAAUAGAUUGCAUCGGUUUAAAAGGCAAGACCGUCAAAUUGCGGGAAAGGGGUCAACAGCCGUUCAGUACCAAGUCUCAGGGGAAACUUUGAGAUGGCCUUGCAAAGGGUAUGGUAAUAAGCUGACGGACAUGGUCCUAACCACGCAGCCAAGUCCUAAGUCAACAGAUCUUCUGUUGAUAUGGAUGCAGUUCACAGACUAAAUGUCGGUCGGGGAAGAUGUAUUCUUCUCAUAAGAUAUAGUCGGACCUCUCCUUAAUGGGAGCUAGCGGAUGAAGUGAUGCAACACUGGAGCCGCUGGGAACUAAUUUGUAUGCGAAAGUAUAUUGAUUAGUUUUGGAGUACUCGUGGUCG
How it was run: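 Library with all eight P1ex-region intron nucleotides randomised, intron inside the knt kanamycin-resistance gene on pET-22b(+), in E. coli BL21(DE3). Cells grew overnight at 37°C or 30°C on LB agar with or without 25 μg/mL kanamycin (plus 100 μg/mL carbenicillin, 50 μM IPTG, 0.2% rhamnose), in six replicate transformations. Pooled colonies were amplicon-sequenced on Illumina HiSeq 2500. DiMSum fitness is the error-weighted combination of wild-type-normalised replicate fold changes, kanamycin versus none.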

Sequence	self-splicing fitness (ln) (30 °C)	self-splicing fitness (ln) (37 °C)
AGCAAGCAAUAUUACGGACC	0.36 ± 0.2	-0.517 ± 0.22
GCCGAGCAAUAUUACGGUCA	-1.63 ± 0.098	-0.977 ± 0.09
UGACAGCAAUAUUACGGGUA	-1.07 ± 0.055	-0.216 ± 0.062
AAGGAGCAAUAUUACGCCUA	-1.21 ± 0.15	-1.35 ± 0.14
CCGAAGCAAUAUUACGCAUG	-1.84 ± 0.11	-0.892 ± 0.12
AUUGAGCAAUAUUACGAUGC	-1.58 ± 0.38	
GUAAAGCAAUAUUACGAGGU	-3.07 ± 0.13	-1.83 ± 0.24
GCUCAGCAAUAUUACGUCUG	-2.36 ± 0.094	-1.99 ± 0.11
UGAUAGCAAUAUUACGGCGU	-2.1 ± 0.18	-1.22 ± 0.16
UGAAAGCAAUAUUACGAGCG	0.46 ± 0.072	-0.171 ± 0.085
CAGGAGCAAUAUUACGAGCG	-1.04 ± 0.13	0.24 ± 0.11
CGAAAGCAAUAUUACGGUCA	-0.303 ± 0.12	-0.586 ± 0.14
GACCAGCAAUAUUACGGAGG	-2.04 ± 0.068	-0.681 ± 0.07
AAUGAGCAAUAUUACGAGCU	-3.15 ± 0.24	-3.57 ± 0.42
CAUGAGCAAUAUUACGGUCC	-3.81 ± 0.37	
AUAGAGCAAUAUUACGGUAA	-1.76 ± 0.15	-1.42 ± 0.17
ACUAAGCAAUAUUACGGAUC	-2.21 ± 0.13	-1.3 ± 0.14
UUACAGCAAUAUUACGGCAA	-0.112 ± 0.11	-0.272 ± 0.12
CUCAAGCAAUAUUACGACGA	-3.03 ± 0.23	-1.35 ± 0.14
GAGCAGCAAUAUUACGCUCU	-3.46 ± 0.28	
AAUCAGCAAUAUUACGCAUA	-0.272 ± 0.085	-0.142 ± 0.13
CGAGAGCAAUAUUACGCGCG	-1.64 ± 0.25	
ACCUAGCAAUAUUACGAUGA	-1.21 ± 0.091	-0.609 ± 0.1
AAAAAGCAAUAUUACGCGCC	-0.44 ± 0.095	-0.59 ± 0.13
CCCUAGCAAUAUUACGUCGG	-3.32 ± 0.22	-2.57 ± 0.23

Sequence	self-splicing fitness (ln) (30 °C)	self-splicing fitness (ln) (37 °C)
UUGCAGCAAUAUUACGCUAC	-0.542 ± 0.29	
CACCAGCAAUAUUACGGGCG	-1.81 ± 0.053	-0.295 ± 0.065
UCCAAGCAAUAUUACGGACU	-3.5 ± 0.21	-2.28 ± 0.18
GUAUAGCAAUAUUACGGUUG	-3.77 ± 0.3	-1.35 ± 0.3
UCAUAGCAAUAUUACGUAAA	-2.76 ± 0.19	-1.99 ± 0.21
UCUAAGCAAUAUUACGGCCG	-1.36 ± 0.34	0.444 ± 0.3
AUGGAGCAAUAUUACGACUU	-1.73 ± 0.1	-1.08 ± 0.13
GUGCAGCAAUAUUACGAGGC	-1.83 ± 0.31	-2.43 ± 0.26
GCCUAGCAAUAUUACGCCAG	-2.75 ± 0.27	-2.67 ± 0.48
GUACAGCAAUAUUACGAAUA	-3.26 ± 0.22	-1.67 ± 0.13
GACAAGCAAUAUUACGGGGC	-3.36 ± 0.18	-2.81 ± 0.23
GAUCAGCAAUAUUACGUCAG	-4.35 ± 0.43	-2.43 ± 0.28
CCGAAGCAAUAUUACGGUCC	-3.68 ± 0.46	-2.26 ± 0.26
GCAAAGCAAUAUUACGAUGU	-2.89 ± 0.15	-1.93 ± 0.17
CCAAAGCAAUAUUACGUCGC	-3.49 ± 0.18	-2.29 ± 0.18
ACACAGCAAUAUUACGCCAU	-3.18 ± 0.21	-1.85 ± 0.15
CCCUAGCAAUAUUACGUGAG	-3.42 ± 0.22	-2.38 ± 0.23
CCUGAGCAAUAUUACGCUUC	-3.16 ± 0.48	-2.4 ± 0.41
CAAUAGCAAUAUUACGGAAC	-3.98 ± 0.33	-3.27 ± 0.47
AACGAGCAAUAUUACGACCG	-3.46 ± 0.34	
CCCUAGCAAUAUUACGCAUG	-2.33 ± 0.14	-2.73 ± 0.2
UAUUAGCAAUAUUACGCACC	-2.77 ± 0.26	-0.337 ± 0.2
UGAUAGCAAUAUUACGCAAU	-2.87 ± 0.49	-1.62 ± 0.36
CAUAAGCAAUAUUACGCUAC		-1.79 ± 0.21
CUCGAGCAAUAUUACGGCAC	-3.63 ± 0.25	-2.16 ± 0.36

Sequence	self-splicing fitness (ln) (30 °C)	self-splicing fitness (ln) (37 °C)
UCAAAGCAAUAUUACGAACA	-1.41 ± 0.18	-0.524 ± 0.15
CAUAAGCAAUAUUACGAGAG	-2.88 ± 0.18	-1.32 ± 0.14
ACUAAGCAAUAUUACGCCUA	-1.41 ± 0.13	-0.734 ± 0.13
AACGAGCAAUAUUACGCCGA	-2.83 ± 0.25	-2.42 ± 0.17
UCGUAGCAAUAUUACGCAGU	-3.54 ± 0.39	-2.51 ± 0.28
ACGGAGCAAUAUUACGUAUA	-2.42 ± 0.18	-1.86 ± 0.25
ACCGAGCAAUAUUACGUCGU	-3.09 ± 0.13	-1.04 ± 0.11
CCCAAGCAAUAUUACGGCAA	-2.32 ± 0.14	-2.69 ± 0.16
AAGGAGCAAUAUUACGAGGA	-3.21 ± 0.46	-1.95 ± 0.38
CACCAGCAAUAUUACGACCU	-3.45 ± 0.17	-1.35 ± 0.17
GAUUAGCAAUAUUACGUACC	-1.71 ± 0.22	0.563 ± 0.21
CAAUAGCAAUAUUACGGUAG	-1.34 ± 0.097	-0.488 ± 0.1
CAUUAGCAAUAUUACGACAU	-3.364 ± 0.024	-1.97 ± 0.036
UUUCAGCAAUAUUACGGCAA	-0.476 ± 0.089	-0.0559 ± 0.11
UUACAGCAAUAUUACGCUCA	-0.512 ± 0.12	-0.224 ± 0.13
GCCAAGCAAUAUUACGUUUA	-2.97 ± 0.19	-2.28 ± 0.18
AUUUAGCAAUAUUACGAUGG	-2.89 ± 0.34	
GUAGAGCAAUAUUACGGCUA	-0.487 ± 0.11	0.641 ± 0.16
CGUCAGCAAUAUUACGGUAG	-0.184 ± 0.059	0.0634 ± 0.064
CCUGAGCAAUAUUACGUCGU	-2.02 ± 0.43	-2.06 ± 0.27
AGAUAGCAAUAUUACGCUGU	-3.36 ± 0.25	-3.22 ± 0.4
CUAUAGCAAUAUUACGAAAG	-1.84 ± 0.1	-1.01 ± 0.12
GUAGAGCAAUAUUACGGUCC	-1.01 ± 0.17	-0.565 ± 0.28
GGUGAGCAAUAUUACGUGUA	-2.8 ± 0.25	-3.22 ± 0.3
AGUAAGCAAUAUUACGCCAG	-3.63 ± 0.33	-1.58 ± 0.29

Sequence	self-splicing fitness (ln) (30 °C)	self-splicing fitness (ln) (37 °C)
CGUCAGCAAUAUUACGCCAC		-1.01 ± 0.45
AUCAAGCAAUAUUACGAGUG	-2.19 ± 0.1	-1.28 ± 0.14
UGCGAGCAAUAUUACGGAGU		-2.08 ± 0.3
UAGUAGCAAUAUUACGCCGG	-1.64 ± 0.21	-0.466 ± 0.24
AUACAGCAAUAUUACGGGUA	-1.24 ± 0.078	-0.645 ± 0.078
UUUAAGCAAUAUUACGACGA	0.228 ± 0.089	0.29 ± 0.11
CCCCAGCAAUAUUACGAGUG	-3.21 ± 0.12	-2.92 ± 0.14
UAUGAGCAAUAUUACGAAAU	-3.68 ± 0.37	
UAGUAGCAAUAUUACGUAGC	-3.52 ± 0.22	-1.37 ± 0.2
CAACAGCAAUAUUACGGUAU	-3.52 ± 0.1	-1.9 ± 0.09
ACAAAGCAAUAUUACGGUCG	-1.24 ± 0.055	-0.228 ± 0.08
AGCCAGCAAUAUUACGACUU	-1.6 ± 0.1	-0.895 ± 0.12
ACUUAGCAAUAUUACGAGUU	-2.42 ± 0.12	-0.552 ± 0.14
AAUAAGCAAUAUUACGAUGU	-0.62 ± 0.076	-0.682 ± 0.11
AAACAGCAAUAUUACGAAUG	-2.81 ± 0.13	-1.91 ± 0.15
AAUUAGCAAUAUUACGUAUA	-1.83 ± 0.28	-1.32 ± 0.38
CUCCAGCAAUAUUACGUACG	-1.82 ± 0.11	-0.463 ± 0.12
CCGCAGCAAUAUUACGUGUA	-3.25 ± 0.17	-1.38 ± 0.13
UGAUAGCAAUAUUACGAACG	-0.462 ± 0.15	-0.0562 ± 0.2
CUCGAGCAAUAUUACGCUAG	-4.42 ± 0.39	-2.52 ± 0.32
UUAGAGCAAUAUUACGCUGA	-2.6 ± 0.21	-0.656 ± 0.28
AGGUAGCAAUAUUACGACCA	0.0772 ± 0.018	0.199 ± 0.038
ACUUAGCAAUAUUACGACCC	0.555 ± 0.32	
GUGGAGCAAUAUUACGUUUC	-3.39 ± 0.37	-1.9 ± 0.21
